In experiment [1] the target is T1, human glycophorin A on human red blood cells (human, UniProt P02724 20-150).
T1 construct: whole, on cells; also called human GPA; huGPA
T1 sequence (looked up): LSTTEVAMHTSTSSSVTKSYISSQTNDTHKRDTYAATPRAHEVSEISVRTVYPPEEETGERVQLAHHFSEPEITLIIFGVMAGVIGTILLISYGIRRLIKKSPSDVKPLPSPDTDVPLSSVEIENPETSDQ
As to the kind of experiment: partition to human RBC, human HemA plasma, 1 min.
Protocol: (§1) The supernatant containing plasma, platelets and white blood cells was discarded and the red blood cell pellet was resuspended in 10 pellet volumes of PBS (50 mM Phosphate buffer, pH7.4, 150 mM NaCl). The red blood cells were then pelleted by slow speed centrifugation and the red blood cells re-suspended in 10 volumes of PBS. This washing step was repeated 4 more times and the red blood cells finally resuspended in a volume of plasma from Hemophilia patients with less than 1% of normal levels of FVIII (GeorgeKing Bio-Medical, Overland Park, Kans.) to generate a total volume equal to the initial blood volume such that the RBC density was equal to that of normal whole blood. BDD and RBC targeted FVIII molecules were then spiked into RBC suspension in HemA plasma at 1 IU/mL, and incubated at room temperature for 2-3 hours with gentle rotation. […] An additional control was performed in which BDD or RBC targeted FVIII molecules were added at 11U/ml into the same human hemophilia A plasma and incubated for 5 minutes and 180 mins. These samples were used to determine the input FVIII activity in the presence of plasma which was used to calculate the percentage of the molecule that was bound to RBC. All plasma samples were then assayed together for FVIII activity using the Coatest SP assay (DiaPharma, Columbus, Ohio). The assay was performed following the manufacturer's instructions in a 96-well plate format. […] The plate was incubated at 37° C. for 10 minutes with shaking between each reagent addition. […] The amount of FVIII activity in the plasma reflects the amount of unbound FVIII. The FVIII activity of the same molecule spiked in to Hemophilia A plasma alone (no RBC) and incubated for 5 minutes was normalized to 100%.

The target of experiment [2] is T1, human glycophorin A on human red blood …. As to the kind of experiment: partition to human RBC, vWF deficient plasma, 5 min.
The target in experiment [3] is T2, Cynomolgus monkey glycophorin A on Cynomolgus monkey red blood cells (Cynomolgus monkey).
T2 construct: whole, on cells; also called Cyno GPA; Cyno RBC
The experiment is described as follows: partition to Cyno RBC, human HemA plasma, 120 min.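 Note: FVIII fusion spiked at 1 IU/mL into RBC suspension at whole-blood density.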

The target in experiment [4] is T1, human glycophorin A on human red blood …. The experiment is described as follows: partition to human RBC, vWF deficient plasma, 30 min.
Experiment [5] has the same target. As to the kind of experiment: partition to human RBC, human HemA plasma, 120 min.
Experiment [6] has the same target. As to the kind of experiment: partition to human RBC, human HemA plasma, 120 min. The source holds these as a separate data set.
Protocol: as §1
The target in experiment [7] is T2, Cynomolgus monkey glycophorin A on …. As to the kind of experiment: partition to Cyno RBC, human HemA plasma, 15 min.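 Note: FVIII fusion spiked at 1 IU/mL into RBC suspension at whole-blood density.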
Experiment [8] concerns the target T1, human glycophorin A on human red blood …. The experiment is described as follows: partition to human RBC, vWF deficient plasma, 1 min.
For experiment [9] the target is unchanged. As to the kind of experiment: partition to human RBC, human HemA plasma, 30 min.
Protocol: as §1
For experiment [10] the target is unchanged. As to the kind of experiment: partition to human RBC, vWF deficient plasma, 120 min.
Experiment [11] has the same target. As to the kind of experiment: partition to human RBC, human HemA plasma, 15 min.
Protocol: as §1
For experiment [12], the target named is T2, Cynomolgus monkey glycophorin A on …. As to the kind of experiment: partition to Cyno RBC, human HemA plasma, 60 min.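 Note: FVIII fusion spiked at 1 IU/mL into RBC suspension at whole-blood density.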
Protocol: (§2) To evaluate partition to cynomolgus monkey or human red blood cells, whole blood was draw from Cynomolgus monkey or normal human volunteers in to anticoagulant with 4% sodium citrate (Sigma, St Louis, Mo.). The red blood cells were purified by layering the whole blood on to ficoll followed by low speed centrifugation. The supernatant containing plasma, platelets and white blood cells was discarded and the red blood cell pellet was resuspended in 10 pellet volumes of PBS (50 mM Phosphate buffer, pH7.4, 150 mM NaCl). The red blood cells were then pelleted by slow speed centrifugation and the red blood cells re-suspended in 10 volumes of PBS. This washing step was repeated 4 more times and the red blood cells finally resuspended in a volume of plasma from Hemophilia patients with less than 1% of normal levels of FVIII (GeorgeKing Bio-Medical, Overland Park, Kans.) to generate a total volume equal to the initial blood volume such that the RBC density was equal to that of normal whole blood. BDD and RBC targeted FVIII molecules were then spiked into RBC suspension in HemA plasma at 1 IU/mL, and incubated at room temperature for 2-3 hours with gentle rotation. […] An additional control was performed in which BDD or RBC targeted FVIII molecules were added at 11U/ml into the same human hemophilia A plasma and incubated for 5 minutes and 180 mins. These samples were used to determine the input FVIII activity in the presence of plasma which was used to calculate the percentage of the molecule that was bound to RBC. All plasma samples were then assayed together for FVIII activity using the Coatest SP assay (DiaPharma, Columbus, Ohio). The assay was performed following the manufacturer's instructions in a 96-well plate format. […] The plate was incubated at 37° C. for 10 minutes with shaking between each reagent addition.
Experiment [13] has as its target T3, glycophorin A peptide GP5 (human, biotin at the N-terminus).
T3 construct: Residues 42 to 61 of the human glycophorin A extracellular domain
T3 peptide: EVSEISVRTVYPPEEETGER
As to the kind of experiment: Octet, GP5 peptide on the probe, fusion protein in solution, 1:1 fit.

For experiment [14], the target named is T1, human glycophorin A on human red blood …. As to the kind of experiment: partition to human RBC, vWF deficient plasma, 60 min.
Experiment [15] shares this target. As to the kind of experiment: partition to human RBC, human HemA plasma, 60 min.
Protocol: as §1
Experiment [16] addresses T2, Cynomolgus monkey glycophorin A on …. The experiment is described as follows: partition to Cyno RBC, human HemA plasma, 30 min.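 Note: FVIII fusion spiked at 1 IU/mL into RBC suspension at whole-blood density.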
Protocol: as §2
For experiment [17], the target named is T1, human glycophorin A on human red blood …. The experiment is described as follows: partition to human RBC, human HemA plasma, 5 min.
Protocol: as §1
The target of experiment [18] is T2, Cynomolgus monkey glycophorin A on …. As to the kind of experiment: partition to Cyno RBC, human HemA plasma, 5 min.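 Note: FVIII fusion spiked at 1 IU/mL into RBC suspension at whole-blood density.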
Protocol: as §2
Experiment [19] shares this target. As to the kind of experiment: partition to Cyno RBC, human HemA plasma, 1 min.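 Note: FVIII fusion spiked at 1 IU/mL into RBC suspension at whole-blood density.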
Protocol: as §2
Experiment [20] concerns the target T1, human glycophorin A on human red blood …. As to the kind of experiment: partition to human RBC, vWF deficient plasma, 15 min.

B1: TPP-8741 FVIII-scFv fusion protein (other)
chain: ATRRYYLGAVELSWDYMQSDLGELPVDARFPPRVPKSFPFNTSVVYKKTLFVEFTDHLFNIAKPRPPWMGLLGPTIQAEVYDTVVITLKNMASHPVSLHAVGVSYWKASEGAEYDDQTSQREKEDDKVFPGGSHTYVWQVLKENGPMASDPLCLTYSYLSHVDLVKDLNSGLIGALLVCREGSLAKEKTQTLHKFILLFAVFDEGKSWHSETKNSLMQDRDAASARAWPKMHTVNGYVNRSLPGLIGCHRKSVYWHVIGMGTTPEVHSIFLEGHTFLVRNHRQASLEISPITFLTAQTLLMDLGQFLLFCHISSHQHDGMEAYVKVDSCPEEPQLRMKNNEEAEDYDDDLTDSEMDVVRFDDDNSPSFIQIRSVAKKHPKTWVHYIAAEEEDWDYAPLVLAPDDRSYKSQYLNNGPQRIGRKYKKVRFMAYTDETFKTREAIQHESGILGPLLYGEVGDTLLIIFKNQASRPYNIYPHGITDVRPLYSRRLPKGVKHLKDFPILPGEIFKYKWTVTVEDGPTKSDPRCLTRYYSSFVNMERDLASGLIGPLLICYKESVDQRGNQIMSDKRNVILFSVFDENRSWYLTENIQRFLPNPAGVQLEDPEFQASNIMHSINGYVFDSLQLSVCLHEVAYWYILSIGAQTDFLSVFFSGYTFKHKMVYEDTLTLFPFSGETVFMSMENPGLWILGCHNSDFRNRGMTALLKVSSCDKNTGDYYEDSYEDISAYLLSKNNAIEPRSFSQNGGGGSTGGTGGSSGGGTGSGGGGTGGSGGTDIQLTQSPSFLSASVGDRVTITCRASSSVRYIYWFQQKPGKAPKLLIYATSFRQSGVPSRFSGSGSGTEYTLTISSLQPEDFATYYCHQRNSFPYTFGQGTKLEIKGGGGSGGGGSGGGGSGGGGSEVQLVQSGAEVKKPGASVKVSCKASGYTFTTYAIHWVRQAPGQGLEWMGYINPSSGYTRYNPKFKGRVTMTRDKSTSTAYMELRSLRSDDTAVYYCWTGTRDYWGQGTTVTVSSGGGGSQNPPVLKRHQREITRTTLQSDQEEIDYDDTISVEMKKEDFDIYDEDENQSPRSFQKKTRHYFIAAVERLWDYGMSSSPHVLRNRAQSGSVPQFKKVVFQEFTDGSFTQPLYRGELNEHLGLLGPYIRAEVEDNIMVTFRNQASRPYSFYSSLISYEEDQRQGAEPRKNFVKPNETKTYFWKVQHHMAPTKDEFDCKAWAYFSDVDLEKDVHSGLIGPLLVCHTNTLNPAHGRQVTVQEFALFFTIFDETKSWYFTENMERNCRAPCNIQMEDPTFKENYRFHAINGYIMDTLPGLVMAQDQRIRWYLLSMGSNENIHSIHFSGHVFTVRKKEEYKMALYNLYPGVFETVEMLPSKAGIWRVECLIGEHLHAGMSTLFLVYSNKCQTPLGMASGHIRDFQITASGQYGQWAPKLARLHYSGSINAWSTKEPFSWIKVDLLAPMIIHGIKTQGARQKFSSLYISQFIIMYSLDGKKWQTYRGNSTGTLMVFFGNVDSSGIKHNIFNPPIIARYIRLHPTHYSIRSTLRMELMGCDLNSCSMPLGMESKAISDAQITASSYFTNMFATWSPSKARLHLQGRSNAWRPQVNNPKEWLQVDFQKTMKVTGVTTQGVKSLLTSMYVKEFLISSSQDGHQWTLFFQNGKVKVFQGNQDSFTPVVNSLDPPLLTRYLRIHPQSWVHQIALRMEVLGCEAQDLY
notes: The entry is the mature protein; mostly a 2 chain molecule; also called BDD-Bdom scFv; PPB 6559
With B1, the “percentage bound to human RBC” value in experiment [1] amounted to 0%; in experiment [2], 67.9%; in [4], 92.4%; in [5], 52.8%; in experiment [6], 52.8%; in experiment [8], 35.1%. In addition, the “percentage bound to human RBC” value in experiment [9] is 20.5%; in [10], 93%; in experiment [11] it was 16.3%; in [14], 93.3%; in [15], 37.1%; in [17] it was 13.8%. In addition, the “percentage bound to human RBC” value in experiment [20] turned out to be 88.3%. The “% bound to Cyno RBC” value was -1.9% in experiment [3]; -12.5% in [7]; -9.8% in experiment [12]; -1.9% in [16]; -19.3% in experiment [18]; 0% in experiment [19]. Also, in [13], binding was characterised by a dissociation constant (Kd) of 13.3 nM. The molecule further gave a koff in experiment [13] of 0.00465 s⁻¹. Besides, the kon in experiment [13] amounted to 351000 M⁻¹ s⁻¹.

These data come from patent US20190359687A1 (Bayer, published 2019).
